Reference: the supplement of paper PMC10567573

B1: ZNF232 (parent)
chain: HSGEKPFICKECGKAYGWCSELIR

Variants of: B1
Assay: protein stability index of a GFP-peptide fusion (GPS, HEK-293T) (PSI 1-6); higher = more stable
Conditions: c terminus: a fixed tail appended
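Further: lentivirally expressed fusions sorted by FACS into six bins by GFP to DsRed ratio, PSI derived from sequencing read proportions per bin multiplied by bin number.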

Row | Variant | protein stability index
1 | HSGEKPFICKECGKAQGWCSELIR | 2.33
2 | HSGEKPFICKECGKAWGWCSELIR | 2.1
3 | HSGEKPFICKECGKATGWCSELIR | 2.49
4 | HSGEKPFICKECGKAVGWCSELIR | 1.54
5 | HSGEKPFICKECGKARGWCSELIR | 2.06
6 | HSGEKPFICKECGKAMGWCSELIR | 1.94
7 | HSGEKPFICKECGKALGWCSELIR | 1.25
8 | HSGEKPFICKECGKAPGWCSELIR | 1.61
9 | HSGEKPFICKECGKASGWCSELIR | 1.99
10 | HSGEKPFICKECGKANGWCSELIR | 1.88
11 | HSGEKPFICKECGKAYGWCSILIR | 2.07
12 | HSGEKPFICKECGKAYGWCSDLIR | 1.86
13 | HSGEKPFICKECGKAYGWCSHLIR | 3.87
14 | HSGEKPFICKECGKAYGWCSCLIR | 2.8
15 | HSGEKPFICKECGKAYGWCSFLIR | 1.92
16 | HSGEKPFICKECGKAYGWCSALIR | 2.27
17 | HSGEKPFICKECGKAYGWCSKLIR | 2.26
18 | HSGEKPFICKECGKAYGWCSGLIR | 2.18
19 | HSGEKPFICKECGKAYGWCHELIR | 2.33
20 | HSGEKPFICKECGKAYGWCAELIR | 2.34
21 | HSGEKPFICKECGKAYGWCGELIR | 1.96
22 | HSGEKPFICKECGKAYGWCCELIR | 2.96
23 | HSGEKPFICKECGKAYGWCRELIR | 3.24
24 | HSGEKPFICKECGKAYGWCQELIR | 1.98

Row | Variant | protein stability index
25 | HSGEKPFICKECGKAYGWCTELIR | 2.11
26 | HSGEKPFICKECGKAYGWCMELIR | 1.75
27 | HSGEKPFICKECGKAYGWCVELIR | 2
28 | HSGEKPFICKECGKAYGWCYELIR | 1.7
29 | HSGEKPFICKECGKAYGWCEELIR | 2.07
30 | HSGEKPFICKECGKAYGWCDELIR | 1.72
31 | HSGEKPFICKECGKAYGWCNELIR | 2.1
32 | HSGEKPFICKECGKAYGWCLELIR | 1.39
33 | HSGEKPFICKECGKAYGWCWELIR | 1.77
34 | HSGEKPFICKECGKAYGWCIELIR | 2.17
35 | HSGEKPFICKECGKAYGWCFELIR | 2.11
36 | HSGEKPFICKECGKAYGWCKELIR | 2.2
37 | HSGEKPFICKECGKAYGWCPELIR | 1.87
38 | HSGEKPFICKECGKAYGWDSELIR | 1.94
39 | HSGEKPFICKECGKAYGWTSELIR | 2.09
40 | HSGEKPFICKECGKAYGWSSELIR | 2.83
41 | HSGEKPFICKECGKAYGWYSELIR | 1.54
42 | HSGEKPFICKECGKAYGWNSELIR | 2.08
43 | HSGEKPFICKECGKAYGWLSELIR | 1.69
44 | HSGEKPFICKECGKAYGWPSELIR | 2.03
45 | HSGEKPFICKECGKAYGWRSELIR | 1.73
46 | HSGEKPFICKECGKAYGWKSELIR | 2.08
47 | HSGEKPFICKECGKAYGWASELIR | 2.06
48 | HSGEKPFICKECGKAYGWQSELIR | 2.39

Row | Variant | protein stability index
49 | HSGEKPFICKECGKAYGWVSELIR | 1.68
50 | HSGEKPFICKECGKAYGWESELIR | 2.5
51 | HSGEKPFICKECGKAYGWFSELIR | 1.69
52 | HSGEKPFICKECGKAYGWHSELIR | 1.82
53 | HSGEKPFICKECGKAYGWISELIR | 1.89
54 | HSGEKPFICKECGKAYGWGSELIR | 1.89
55 | HSGEKPFICKECGKAYGWWSELIR | 1.37
56 | HSGEKPFICKECGKAYGWMSELIR | 2.13
57 | HSGEKPFICKECGKAYGMCSELIR | 2.57
58 | HSGEKPFICKECGKAYGGCSELIR | 2.43
59 | HSGEKPFICKECGKAYGQCSELIR | 2.49
60 | HSGEKPFICKECGKAYGYCSELIR | 1.79
61 | HSGEKPFICKECGKAYGNCSELIR | 2.03
62 | HSGEKPFICKECGKAYGLCSELIR | 2.09
63 | HSGEKPFICKECGKAYGFCSELIR | 1.55
64 | HSGEKPFICKECGKAYGTCSELIR | 1.83
65 | HSGEKPFICKECGKAYGSCSELIR | 2.67
66 | HSGEKPFICKECGKAYGACSELIR | 1.85
67 | HSGEKPFICKECGKAYGECSELIR | 2.95
68 | HSGEKPFICKECGKAYGKCSELIR | 1.78
69 | HSGEKPFICKECGKAYGRCSELIR | 1.9
70 | HSGEKPFICKECGKAYGICSELIR | 2.46
71 | HSGEKPFICKECGKAYGPCSELIR | 1.81
72 | HSGEKPFICKECGKAYGCCSELIR | 2.18

Row | Variant | protein stability index
73 | HSGEKPFICKECGKAYGVCSELIR | 2.25
74 | HSGEKPFICKECGKAYGHCSELIR | 2.28
75 | HSGEKPFICKECGKAYGDCSELIR | 2.67
76 | HSGEKPFICKECGKAYTWCSELIR | 1.56
77 | HSGEKPFICKECGKAYNWCSELIR | 1.38
78 | HSGEKPFICKECGKAYVWCSELIR | 1.52
79 | HSGEKPFICKECGKAYPWCSELIR | 2.54
80 | HSGEKPFICKECGKAYYWCSELIR | 2.24
81 | HSGEKPFICKECGKAYIWCSELIR | 2.51
82 | HSGEKPFICKECGKAYEWCSELIR | 1.82
83 | HSGEKPFICKECGKAYWWCSELIR | 2.2
84 | HSGEKPFICKECGKAYHWCSELIR | 2.09
85 | HSGEKPFICKECGKAYFWCSELIR | 1.97
86 | HSGEKPFICKECGKAYLWCSELIR | 1.82
87 | HSGEKPFICKECGKAYQWCSELIR | 2.2
88 | HSGEKPFICKECGKAYDWCSELIR | 2.2
89 | HSGEKPFICKECGKAYMWCSELIR | 2.2
90 | HSGEKPFICKECGKAYAWCSELIR | 1.84
91 | HSGEKPFICKECGKAYKWCSELIR | 1.6
92 | HSGEKPFICKECGKAYSWCSELIR | 1.8
93 | HSGEKPFICKECGKAYCWCSELIR | 3.39
94 | HSGEKPFICKECGKAYRWCSELIR | 1.65
